From patent US20230105457A1, “Immunogenic Compounds For Treatment Of Adrenal Cancer” (ENTEROME S.A., priority 2019, published 2023)
Read-outs that look alike come from different tables or passages of the source.

Columns and labels:
[1] = tested on: splenocytes of HLA-A2 (CB6F1-Tg(HLA-A*0201/H2-K^b)A*0201) mice; assay: ELISPOT-IFNγ assay on splenocytes of vaccinated HLA-A2 humanized mice (Example 9); assay type: in vivo, mouse; conditions: 100 μg s.c. d0 and d14 with T13L helper and IFA; compared to the respective human reference epitopes
Source text: Briefly, HLA-A2 humanized mice (HLA-A2 (CB6F1-Tg(HLA-A*0201/H2-K^b)A*0201) were assigned randomly (based on mouse sex and age) to experimental groups, wherein each group was immunized with a specific vaccination peptide (vacc-pAg) combined to a common helper peptide (h-pAg T13L; sequence: […]; SEQ ID NO: 280; Bhasin M, Singh H, Raghava G P (2003) MHCBN: a comprehensive database of MHC binding and non-binding peptides. Bioinformatics 19: 665-666) (as outlined in Table 15 below). The vacc-pAg were compared in couples (group 1 vs. group 2, group 1 vs. group 3; group 1 vs. group 4; group 5 vs. group 6; group 7 vs. group 8). Thereby, both native and optimized versions of a single peptide were compared in each wave.
(§1) The animals were immunized on day 0 (d0) with a prime injection, and on d14 with a boost injection. Each mouse was injected s.c. at tail base with 100 μL of an oil-based emulsion that contained: • 100 μg of vacc-pAg (25 μL of 4 mg/mL stock per mouse); • 150 μg of h-pAg (15 μL of 10 mg/mL stock per mouse); • 10 μL of PBS to reach a total volume of 50 μL (per mouse); • Incomplete Freund's Adjuvant (IFA) added at 1:1 (v:v) ratio (50 μL per mouse).
(§2) A separate emulsion was prepared for each vacc-pAg, as follows: IFA reagent was added to the vacc-pAg/h-pAg/PBS mixture in a 15 mL tube and mixed on vortex for repeated cycles of 1 min until forming a thick emulsion.
(§3) Seven days after the boost injection (i.e. on d21), the animals were euthanized and the spleen was harvested. Splenocytes were prepared by mechanical disruption of the organ followed by 70 μm-filtering and Ficoll density gradient purification.
(§4) The splenocytes were immediately used in an ELISPOT-IFNγ assay (Table 16). Experimental conditions were repeated in triplicates, using 2*105 total splenocytes per well, and were cultured in presence of vacc-pAg (10 μM), lonomycin (0.1 μM) plus PMA (1 μM) or medium-only to assess for their capacity to secrete IFNγ. The commercial ELISPOT-IFNγ kit (Diaclone Kit Mujrine IFNγ ELISpot) was used following the manufacturer's instructions, and the assay was performed after about 19 h of incubation.
Spots were counted on a CTL ELISpot reader. Data plotting and statistical analysis were performed with the Prism-5 software (GraphPad Software Inc.).
The data were then normalized as a number of specific spots (the average counts obtained in the ‘medium only’ condition being subtracted) per 50*103 total T cells.
(§5) The individual average values (obtained from the triplicates) were next used to plot the group average values. As the functional capacity of T cells might vary from individual to individual, the data were also expressed as the percentage of the ionomycin plus PMA response per individual (see FIG. 11).

[2] = tested on: U87 cells (expressing IL13RA2); assay: In vitro cytotoxicity of T cells from immunized HHD mice against U87 cells (Example 4); assay type: cell-based; conditions: CD3+ T cells of mice immunized with the peptide, 72 h co-culture with U87-MG
Procedure: Briefly, […] from mice immunized with IL13RA2-H or IL13RA2-B were used. These cells were obtained after sorting of splenocyte from immunized mice and were placed on top of U87 cells (expressing IL13RA2).
In more detail, CD3+ T cells were purified from splenocytes of HHD mice immunized with IL13RA2-H ([…], SEQ ID No 263) or IL13RA2-B ([…]). To this end, B6 β2m^ko HHD/DR3 mice were injected s.c. at tail base with 100 μL of an oil-based emulsion containing vaccination peptide plus helper peptide plus CFA (complete Freund's adjuvant), at day 0 and day 14. On d21, i.e. seven days after the boost injection, the animals were euthanized and the spleen was harvested. Splenocytes were prepared by mechanical disruption of the organ. CD3+ purification was performed using the mouse total T cells isolation kit from Miltenyi biotec using the recommended procedure. Efficient purification of cells and viability was validated by cytometry using appropriate marker for viability, CD8, CD4, CD3, and CD45. […]
72 hours after co-culture of U87-MG cells and CD3+ T cells, all cells from the wells were harvested and specific U87-MG cell death was evaluated after immunostaining of CD45 negative cells with DAPI and fluorescent annexin V followed by cytometry analysis.

[3] = tested on: splenocytes of β/A2/DR3 mice; assay: ELISPOT-IFNγ assay on splenocytes of vaccinated β/A2/DR3 mice (Example 2); assay type: in vivo, mouse; conditions: for Percentage of ConA-induced response (mean+/−SEM), ELISPOT-IFNγ: label = vaccination peptide
Source text: Briefly, 14 β/A2/DR3 mice were assigned randomly (based on mouse sex and age) to two experimental groups, each immunized with a specific vaccination peptide (vacc-pAg) combined to a common helper peptide (h-pAg) (as outlined in Table 7 below). The vacc-pAg were compared in couples (group 1 vs. group 2). Thereby, both native and optimized versions of a single peptide were compared in each wave.
as §1, §2, §3
as §4, with “8).” for “16).”, “quadruplets,” for “triplicates,”, “Concanavalin A (ConA, 2.5 μg/mL)” for “lonomycin (0.1 μM) plus PMA (1 μM)”, “16” for “19”
Spots were counted on a Grand ImmunoSpot® S6 Ultimate UV Image Analyzer interfaced to the ImmunoSpot 5.4 software (CTL-Europe). Data plotting and statistical analysis were performed with the Prism-5 software (GraphPad Software Inc.).
The cell suspensions were also analyzed by flow cytometry, for T cell counts normalization. The monoclonal antibody cocktail (data not shown) was applied on the purified leucocytes in presence of Fc-block reagents targeting murine (1:10 diluted ‘anti-mCD16/CD32 CF11 clone’—internal source) Fc receptors. Incubations were performed in 96-well plates, in the dark and at 4° C. for 15-20 minutes. The cells were washed by centrifugation after staining to remove the excess of monoclonal antibody cocktail, and were re-suspended in PBS for data acquisition.
The data were then normalized as a number of specific spots (the average counts obtained in the ‘medium only’ condition being subtracted) per 10^6 total T cells.
as §5, with “quadruplicates)” for “triplicates)”, “values (see FIG. 3A).” for “values.”, “ConA” for “ionomycin plus PMA”, “3B).” for “11).”

HLA-A*0201 = HLA-A*0201 (Homo sapiens, UniProt P04439, D140Y/D185E/D98H/E176V/E277Q/G131W/G231S/I119V/I121R/I166T/I218V/L300P/L318F/N151K/N90K/P208A/P217A/Q86G/Q94H/R138H/R169H/T345S); conditions: for Mean fluorescence intensity: T2 cells
Procedure: T2 cells (2·10^5 cells per well) are incubated with decreasing concentrations of peptides from 100 μM to 0.1 μM in a AIMV medium supplemented with 100 ng/μl of human P2m at 37° C. for 16 hours.
The analysis is achieved by FACS (Guava Easy Cyte).
The relative affinity is then determined as follows:
Each peptide is solubilized by taking into account the amino acid composition. […] Other peptides are resuspended in water or PBS pH7.4.
T2 cells (2·10^5 cells per well) were incubated with decreasing concentrations of peptides from 100 μM to 0.1 μM in a AIMV medium supplemented with 100 ng/μl of human P2m at 37° C. for 16 hours.
The analysis was achieved by FACS (Guava Easy Cyte).

[4] = molecular target: T1, HLA-A*0201 molecule expressed on human tumor cell line T2 (human); assay: T2 cell HLA-A2 stabilisation, FACS; 20% of signal of HIV pol 589-597 at 100 µM
T1 construct: surface HLA-A2 read with anti-HLA-A2 antibody BB7.2-PE by FACS; also called HLA-A2

[5] = molecular target: T1, HLA-A*0201 molecule expressed on human …; assay: T2 cell HLA-A2 stabilisation, FACS; peptide at 50 µM
[6] = molecular target: T1, HLA-A*0201 molecule expressed on human …; assay: T2 cell HLA-A2 stabilisation, FACS; ratio of 20% concentration to that of HIV pol 589-597 (lower = stronger)
[7] = molecular target: T1, HLA-A*0201 molecule expressed on human …; assay: as above; remark: listed apart in the source
[8] = molecular target: T1, HLA-A*0201 molecule expressed on human …; assay: as above; remark: listed apart in the source
[9] = molecular target: T1, HLA-A*0201 molecule expressed on human …; assay: T2 cell HLA-A2 stabilisation, FACS; peptide at 6.25 µM
[10] = molecular target: T1, HLA-A*0201 molecule expressed on human …; assay: T2 cell HLA-A2 stabilisation, FACS; 20% of signal of HIV pol 589-597 at 100 µM; remark: listed apart in the source
[11] = molecular target: T1, HLA-A*0201 molecule expressed on human …; assay: as above; remark: listed apart in the source
[12] = molecular target: T1, HLA-A*0201 molecule expressed on human …; assay: T2 cell HLA-A2 stabilisation, FACS; peptide at 3.125 µM
[13] = molecular target: T1, HLA-A*0201 molecule expressed on human …; assay: T2 cell HLA-A2 stabilisation, FACS; peptide at 100 µM
[14] = molecular target: T1, HLA-A*0201 molecule expressed on human …; assay: T2 cell HLA-A2 stabilisation, FACS; peptide at 1.5625 µM
[15] = molecular target: T1, HLA-A*0201 molecule expressed on human …; assay: T2 cell HLA-A2 stabilisation, FACS; peptide at 25 µM
[16] = molecular target: T1, HLA-A*0201 molecule expressed on human …; assay: T2 cell HLA-A2 stabilisation, FACS; ratio of 20% concentration to that of HIV pol 589-597 (lower = stronger); remark: listed apart in the source

FLPFGFILV [IL13RA2-B]
T cell responses in the ELISPOT-IFNγ assay (in words) [1]: induced improved T cell responses
U87 cell lysis (in words) [2]: U87 cell lysis was observed
Percentage of ConA-induced response (mean+/−SEM), ELISPOT-IFNγ ([3]; ex vivo restimulation with IL13RA2-B pAg (10 μM)): 56.3%+/−18.1
Percentage of ConA-induced response (mean+/−SEM), ELISPOT-IFNγ ([3]; ex vivo restimulation with IL13RA2-H pAg (10 μM)): 32.3%+/−11.8
T cell responses in the ELISPOT-IFNγ assay (in words) ([3]; vaccination 100 μg s.c. d0 and d14 with HHD-DR3 helper and IFA, compared to IL13RA2-H-vaccinated animals): improved T cell responses
Concentration of peptide that induces 20% of HLA-A2 expression (HLA-A*0201; T2 cell line, HLA-A*0201, Example 13, protocol as in Example 3): 1.9 µM
Concentration that induces 20% of expression of the HLA-A*0201 (HLA-A*0201; T2 cells (Example 1)): 4.4 µM
Mean fluorescence intensity (HLA-A*0201; peptide at 0.1 μM (Example 1)): 9.9
Mean fluorescence intensity (HLA-A*0201; peptide at 1 μM (Example 1)): 12.18
Mean fluorescence intensity (HLA-A*0201; peptide at 100 μM (Example 1)): 112.03
Concentration of peptide that induces 20% of HLA-A2 expression (HLA-A*0201; Table 12, Example 7): 2.9 µM
Concentration of peptide that induces 20% of HLA-A2 expression (HLA-A*0201; Table 14, Example 8): 2.9 µM

FLPFGFILV (also called candidate peptide) [IL13RA2-B]
Concentration of peptide that induces 20% of HLA-A2 expression [4]: 2.9 µM
mean relative fluorescence intensity [5]: 113 relative (HIV peptide = 100)
In vitro binding affinity (relative affinity) [6]: 0.3
In vitro binding affinity (relative affinity) [7]: 0.49
In vitro binding affinity (relative affinity) [8]: 0.3
mean relative fluorescence intensity [9]: 40.8 relative (HIV peptide = 100)
Concentration of peptide that induces 20% of HLA-A2 expression [10]: 2.9 µM
Concentration of peptide that induces 20% of HLA-A2 expression [11]: 1.9 µM
mean relative fluorescence intensity [12]: 15.7 relative (HIV peptide = 100)
mean relative fluorescence intensity [13]: 128 relative (HIV peptide = 100)
mean relative fluorescence intensity [14]: 14.8 relative (HIV peptide = 100)
mean relative fluorescence intensity [15]: 86.5 relative (HIV peptide = 100)
In vitro binding affinity (relative affinity) [16]: 2.48

B1: 1A9V (peptide)
peptide: ALPFGFILV
notes: also called comparative peptide of Eguchi et al. 2006
Concentration of peptide that induces 20% of HLA-A2 expression [4]: 36.5 µM
In vitro binding affinity (relative affinity) [7]: 3.06
In vitro binding affinity (relative affinity) [8]: 3.6
Concentration of peptide that induces 20% of HLA-A2 expression [11]: 20.9 µM
In vitro binding affinity (relative affinity) [16]: 27.7

FLPFGFILPV (also called IL13R2A-L) [IL13RA2-L]
In vitro binding affinity (relative affinity) [6]: 0.3
In vitro binding affinity (relative affinity) [8]: 0.3
In vitro binding affinity (relative affinity) [16]: 0.53
